Experimental data: the supplement of paper PMC12338614
± gives the uncertainty stated by the source.

B1: library; numbered along this chain (parent)
chain: MEVVDPQQLGMFTEGELMSVGMDTFIHRIDSTEVIYQPRRKRAKLIGKYLMGDLLGEGSYGKVKEVLDSETLCRRAVKILKKKKLRRIPNGEANVKKEIQLLRRLRHKNVIQLVDVLYNEEKQKMYMVMEYCVCGMQEMLDSVPEKRFPVCQAHGYFCQLIDGLEYLHSQGIVHKDIKPGNLLLTTGGTLKISDLGVAEALHPFAADDTCRTSQGSPAFQPPEIANGLDTFSGFKVDIWSAGVTLYNITTGLYPFEGDNIYKLFENIGKGSYAIPGDCGPPLSDLLKGMLEYEPAKRFSIRQIRQHSWFRKKHPPAEAPVPIPPSPDTKDRWRSMTVVPYLEDLHGADEDEDLFDIEDDIIYTQDFTVPGQVPEEEASHNGQRRGLPKAVCMNGTEAAQLSTKSRAEGRAPNPARKACSASSKIRRLSACKQQ

Variants of: B1
Test: STK11 functional score (HeLa growth suppression), rescaled enrichment; synonymous median = 1, nonsense median = 0 (normalised score)
Settings: with HeLa; variant type: missense
Method in brief: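 Functional scores are post/pre-selection log ratios corrected to wild type, rescaled to synonymous and nonsense medians, merged over codons and replicate transfections, and given bootstrapped error. They come from POPCode libraries of codon-optimised STK11 integrated by Bxb1 at an AAVS1 landing pad in HeLa, three regions each transfected three times, with BFP-negative, mCherry-positive integrants sorted by FACS and tiled gDNA amplicons sequenced on NextSeq.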

Variant	STK11 functional score
E351V	1.36 ± 0.18
D30A	1.7 ± 0.28
G268S	1.55 ± 0.18
Y253E	1 ± 0.41
G215Y	1.08 ± 0.31
G215H	0.951 ± 0.64
G215Q	0.0889 ± 0.12
A406P	1.21 ± 0.54
A406R	1.59 ± 0.28
A406I	1.6 ± 0.32
D194C	-0.228 ± 0.094
E121V	1.41 ± 0.14
E121A	0.765 ± 0.27
E121M	0.84 ± 0.28
P217W	1.66 ± 0.13
P217G	1.53 ± 0.18
P217V	0.177 ± 0.36
P217C	0.451 ± 0.36
K191N	0.186 ± 0.16
Q382L	1.34 ± 0.28
N247K	0.794 ± 0.19
S404F	0.794 ± 0.61
S404C	1.14 ± 0.56
S404K	1.56 ± 0.26

Variant	STK11 functional score
M22P	1.54 ± 0.16
A410W	1.68 ± 0.24
A410E	1.34 ± 0.14
Q112Y	1.01 ± 0.096
Q159D	1.12 ± 0.46
L201I	1.48 ± 0.3
L201P	1.36 ± 0.18
K82C	1.23 ± 0.15
A76G	1.09 ± 0.1
F219V	0.825 ± 0.13
Y156L	1.34 ± 0.24
P314S	1.33 ± 0.16
R331Y	1.35 ± 0.16
T212G	1.3 ± 0.42
T212E	1.65 ± 0.34
A206S	1.17 ± 0.093
A206W	0.035 ± 0.16
A206V	0.497 ± 0.082
T209N	1.51 ± 0.17
T209A	1.2 ± 0.51
R74T	-0.214 ± 0.22
R74S	0.519 ± 0.21
R74K	1.11 ± 0.62
D258G	1.47 ± 0.15

Variant	STK11 functional score
H168Q	0.947 ± 0.14
R409T	1.47 ± 0.28
C73F	0.572 ± 0.11
K329W	0.742 ± 0.31
P221C	0.759 ± 0.11
G227Y	1.46 ± 0.42
G227D	1.13 ± 0.47
G227P	1.1 ± 0.52
G227R	0.588 ± 0.47
V150L	0.401 ± 0.14
E70S	0.896 ± 0.15
E70Q	0.703 ± 0.26
L160R	-0.13 ± 0.095
L245S	-0.117 ± 0.094
G270F	1.14 ± 0.39
L183P	0.221 ± 0.35
T249K	-0.0774 ± 0.081
T249V	1.56 ± 0.1
S421T	1.12 ± 0.41
E165K	0.973 ± 0.53
E165G	0.569 ± 0.084
N266L	0.675 ± 0.16
K44V	0.967 ± 0.15
Q214W	0.779 ± 0.19

Variant	STK11 functional score
Y272W	1.01 ± 0.2
Y272H	1.08 ± 0.32
E342K	1.61 ± 0.47
P324M	0.794 ± 0.7
P324D	1.57 ± 0.18
G288M	1.23 ± 0.13
G288C	0.989 ± 0.45
A417T	1.55 ± 0.17
A417E	1.22 ± 0.18
I88Y	1.67 ± 0.21
D176T	-0.105 ± 0.43
D176K	-0.194 ± 0.099
A397I	1.51 ± 0.27
A397L	1.27 ± 0.27
K124Y	1.25 ± 0.086
N226C	1.29 ± 0.27
Y60M	1.64 ± 0.17
V390D	1.4 ± 0.28
V390L	1.22 ± 0.21
V390Y	1.41 ± 0.3
L386F	0.706 ± 0.4
A429Q	1.56 ± 0.36
Q152E	0.844 ± 0.51
K122A	1.18 ± 0.53

Variant	STK11 functional score
K122N	1.51 ± 0.3
S142T	1.47 ± 0.18
K83I	1.29 ± 0.08
K83C	1.39 ± 0.23
Y118G	1.23 ± 0.15
I260W	1.21 ± 0.38
I260G	1.1 ± 0.25
I260V	1.07 ± 0.18
I260D	1.16 ± 0.21
D277C	1.32 ± 0.18
G91Q	1.1 ± 0.13
R28W	1.18 ± 0.092
S232A	1.04 ± 0.22
Q170W	1.17 ± 0.12
C278W	0.795 ± 0.1
A225T	1.65 ± 0.34
K423T	1.57 ± 0.22
K423S	1.56 ± 0.13
I424D	1.54 ± 0.2
H306A	1.38 ± 0.39
G394A	1.32 ± 0.31
S240C	1.38 ± 0.098
S325H	1.54 ± 0.32
Y131Q	-0.0871 ± 0.078

Variant	STK11 functional score
V116S	0.887 ± 0.14
R87P	1.24 ± 0.12
S283A	1.24 ± 0.14
D327Y	1.36 ± 0.08
D327W	1.57 ± 0.12
T328H	1.52 ± 0.17
C391V	0.834 ± 0.47
C391E	1.58 ± 0.28
C391L	1.54 ± 0.24
C391H	1.46 ± 0.11
I79P	0.0986 ± 0.19
I79Y	-0.0325 ± 0.073
I79S	0.761 ± 0.099
Q371A	1.6 ± 0.27
N119M	0.408 ± 0.074
N119W	1.58 ± 0.17
P294S	0.67 ± 0.14
F366R	1.52 ± 0.17
A273C	0.584 ± 0.098
S419Y	1.61 ± 0.027
S419D	1.1 ± 0.4
K262V	1.29 ± 0.3
K262N	1.33 ± 0.53
K262T	1.08 ± 0.31

Variant	STK11 functional score
K262G	1.35 ± 0.21
R301I	1.65 ± 0.25
R301A	1.56 ± 0.16
L101P	0.045 ± 0.083
E349S	1.38 ± 0.28
E349T	1.51 ± 0.13
S193Y	-0.104 ± 0.094
R104G	0.389 ± 0.56
Q220Y	1.33 ± 0.15
V372Q	1.49 ± 0.16
V372A	1.48 ± 0.16
V372Y	1.48 ± 0.33
F354I	1.32 ± 0.16
F354T	0.37 ± 0.26
I29V	1.68 ± 0.14
L285V	0.239 ± 0.1
A389G	1.46 ± 0.35
A389S	1.38 ± 0.32
A389W	1.04 ± 0.2
A389E	1.52 ± 0.17
Y36G	1.55 ± 0.11
L344Y	0.904 ± 0.2
P254T	0.929 ± 0.1
